These results are taken from patent publication US20140199714A1, “METHOD FOR DETECTING CANCER CELLS METASTASIZING INTO SENTINEL LYMPH NODE” (SHINSHU UNIVERSITY, priority 2008, published 2014).

Holding throughout (assay type): cell-based
The test system of one test is E-selectin on human LECs. Kind of test: Immunohistochemical expression of E-selectin on cultured human LECs. The protocol:
(§1) Using an indirect immunohistochemical technique, the inventors examined the effects of the supernatants of culture medium of two kinds of carcinoma cells, MDA-MB-231 and MCF-7, on the expression of adhesion molecules such as E-selectin, P-selectin, vascular cell adhesion molecule (VCAM)-1, and intercellular adhesion molecule (ICAM)-1 on the human LECs. The carcinoma cells were plated in DMEM/F12 with 10% FBS, which was replaced the following day with DMEM/F12 with 3% FBS, and then collected after overnight culture. The collected solution was centrifuged at 2,000 rpm for 5 min. at 4° C. To examine the effects of the supernatants on the expression of the adhesion molecules on the human LECs, 1 mL of each collected solution was added to starvation culture medium, EBM-2 with 3% FBS of the human LECs, and then stimulated for 48 hrs. on the cells. In some experiments, the supernatant solutions at different concentrations (1/100 or 1/10,000 dilution) were constructed with appropriate volumes of DMEM/F12 with 3% FBS.
(§2) Indirect immunohistochemical studies were performed on the cultured LECs seeded or glass slides coated with type I collagen, and then the cells were fixed with 3.3% formalin in phosphate-buffered saline solution (PBS), for 20 min. at room temperature. The cells were washed three times with PBS, and then incubated overnight at 4° C. with primary polyclonal human antisera to E-selectin/CD62E (dilution 10 μg/mL, available from R&D Systems, US), P-selectin/CD62P (dilution 10 μg/mL, available from R&D Systems, US), VCAM-1/CD106 (dilution 10 μg/mL, available from R&D Systems, US), and ICAM-1/CD54 (dilution 10 μg/mL, available from R&D Systems, US).
(§3) Before primary staining, the cultured cells were permeabilized with 0.1% TRITON-X. After washing three times in PBS, the cells were incubated for 1 hr. at room temperature with 1:100 diluted ALEXA FLUOR 488 donkey anti-mouse IgG (available from Invitrogen, US). The nuclei of cultured cells were counter-stained and mounted with PROLONG GOLD antifade reagent with 4′-6-diamidine-2-phenylindole (DAPI) (available from Molecular Probes, US), examined by a fluorescent microscope (Leica, Switzerland), and photographed.
(§4) Immunohistochemistry was performed on the cultured human LECs or the fresh-frozen SLNs isolated from the breast cancer patients. In brief, the cultured LECs were fixed with 10% formalin in the phosphate-buffered saline solution (PBS) at room temperature. The cells were incubated for 4 hrs. at room temperature with primary polyclonal human antisera platelet-endothelial cell adhesion molecule (PECAM)-1 (dilution 1:100, available from BD Biosciences, US), lymphatic vessel endothelial hyaluronan receptor (LYVE)-1 (dilution 1:50, available from RELIATech, Germany), PROX-1 (dilution 1:50, available from AngioBio, US), podoplanin (dilution 1:50, available from AngioBio, US), vascular endothelium growth factor receptor 3 (VEGF R3) (dilution 1:50, available from Santa Cruz, US), E-selectin/CD62E (dilution 1:50, available from R&D systems, US), P-selectin/CD62P (dilution 1:50, available from R&D systems, US), vascular cell adhesion molecule (VCAM)-1/CD106 (dilution 1:50, available from R&D systems, US), and intercellular adhesion molecule (ICAM)-1/CD54 (dilution 1:50, available from R&D systems, US). Before the staining, permeabilization of the cultured cells with 0.1% TRITON-X was performed. Then, the cells were stained using the following antibodies: ALEXA FLUOR 488 chicken anti-rabbit IgG or ALEXA FLUOR 488 donkey anti-mouse IgG (available from Invitrogen, US). The nuclei of the cultured cells were counter-stained and mounted with ProLong Gold antifade reagent with 4′-6-diamidine-2-phenylindole (DAPI) (available from Molecular Probes, US). The cultured cells were examined by a fluorescent microscope (available from Leica, Germany) and photographed. […]

Another test concerns P-selectin on human LECs. Kind of test: Immunohistochemical expression of P-selectin on cultured human LECs. The settings on record: 48 hrs. treatment with 100 ng/mL IL-6, 100 ng/mL VEGF-A, or 500 ng/mL VEGF-C. The procedure: as §1, §2
Before primary staining, the cultured cells were permeabilized with 0.1% TRITON-X. After washing three times in PBS, the cells were incubated for 1 hr. at room temperature with 1:100 diluted ALEXA FLUOR 488 donkey anti-mouse IgG (available from Invitrogen, US). […]

The subject of the next test is VCAM-1 on human LECs. Kind of test: Immunohistochemical expression of VCAM-1 on cultured human LECs. The settings on record: for staining with VCAM-1 on human LECs: 48 hrs. treatment with 100 ng/mL IL-6, 100 ng/mL VEGF-A, or 500 ng/mL VEGF-C; for expression of VCAM-1 on human LECs: 18 hrs.-stimulation with 10 ng/mL chemokine. The procedure: as §1, §2, §3, §4
The subject of test [1] is ICAM-1 on human LECs. Kind of test: Immunohistochemical expression of ICAM-1 on cultured human LECs. The settings on record: for staining with ICAM-1 on human LECs: 48 hrs. treatment with 100 ng/mL IL-6, 100 ng/mL VEGF-A, or 500 ng/mL VEGF-C; for expression of ICAM-1 on human LECs: 18 hrs.-stimulation with 10 ng/mL chemokine.
Test [2] has as its system ICAM-1 on human LECs. The test is described as above. To be noted: 48 hrs. simultaneous treatment with 10^−7 or 10^−6M antagonist; n=5. The protocol: as §1
Indirect immunohistochemical studies were performed on the cultured LECs seeded or glass slides coated with type I collagen, and then the cells were fixed with 3.3% formalin in phosphate-buffered saline solution (PBS), for 20 min. at room temperature. […]
In some experiments, the effects of 10 ng/mL CCL2 on the immunohistochemical expression of ICAM-1 on the human LECs were also evaluated using the same procedure as that mentioned above after overnight neutralization of CCL2 in the starvation culture medium with a CCL2 specific antibody (1.0 μg/mL). […]
To quantitatively examine the immunohistochemical data concerning the expression of ICAM-1 on the human LECs, the high-resolution digital microphotographs were processed using the SCION IMAGE analysis program. […]

The test system of test [3] is attachment of carcinoma cells to human LECs. Kind of test: In vitro human LEC attachment assay (ATP or MDA-MB-231 supernatant stimulation). The settings on record: p<0.01, n=5. The procedure: The human LECs were plated to form a monolayer on type I collagen-coated 35 mm plates and incubated to confluence at 37° C. in 5% O2, 5% CO2, and 90% N2. The LECs were kept in serum-starved medium of EBM-2 with 3% FBS. Selected plates were treated with 10^−7M ATP or the supernatant of culture medium of MDA-MB-231 cells for 48 hrs. In some experiments, 10^−6M suramin was simultaneously added to the plates during 48 hrs. treatment with 10^−7M ATP or the culture medium supernatant of MDA-MB-231 cells.
In some experiments, the plates were also treated with anti-human-ICAM-1 antibody (available from R&D Systems, US) for 30 min after 48 hrs. treatment with the culture medium supernatant of MDA-MB-231 or 10^−7M ATP. Breast carcinoma cells stained with PKH26 fluorescent dye (available from SIGMA, US) were then plated at 5×10^4 cells per plate and incubated for 30 min. at 37° C. Unbound cells were removed by aspiration and the plates washed with DMEM/F12 three times. Attachment was quantitated by counting cells under ×100 magnification using a microscope (available from Leica, Switzerland).

The test system of a further test is human LECs. Kind of test: Proliferative ability of human LECs with lymphangiogenic factors.
[4] abbreviates: 48 hrs. treatment with 100 ng/mL IL-6, 100 ng/mL VEGF-A, or 500 ng/mL VEGF-C.
Setting [5] is: 18 hrs.-stimulation with 10 ng/mL chemokine.

IL-6: cytokine: the “expression of E-selectin on human LECs” value in the test on E-selectin on human LECs (setting [4]) is on record as “No or little expression”. In addition, the “staining by P-selectin antiserum on human LECs” value with P-selectin on human LECs was “strongly stained”. Further, in the test on VCAM-1 on human LECs, the “staining with VCAM-1 on human LECs” value is recorded as “Slight staining”. In the test on ICAM-1 on human LECs [1], the “staining with ICAM-1 on human LECs” value was “Slight staining”.

Turning to `C#CCn1c(=O)c2c(ncn2C)n(C)c1=O` [DMPX, 3,7-dimethyl-1-propargyl xanthine], the “effect on MDA-MB-231 supernatant-mediated expression of ICAM-1 on human LECs” value (“effect … on human LECs” for short) in the test on ICAM-1 on human LECs [2] is given as “no significant effect”.

For `Cc1ccc(C(=O)Nc2ccc(S(=O)(=O)O)c3cc(S(=O)(=O)O)cc(S(=O)(=O)O)c23)cc1NC(=O)c1cccc(NC(=O)Nc2cccc(C(=O)Nc3cc(C(=O)Nc4ccc(S(=O)(=O)O)c5cc(S(=O)(=O)O)cc(S(=O)(=O)O)c45)ccc3C)c2)c1` [suramin], in test [3] (48 hrs. simultaneous treatment with 10^−6M suramin), the “effect on MDA-MB-231 supernatant-mediated increase of attachment of carcinoma cells to human LECs” value is reported as “significant reduction”. Further, the “effect on ATP-mediated increased attachment of carcinoma cells to LECs” value in test [3] (simultaneous treatment with 10^−6M suramin, 10^−7M ATP 48 hrs.) is recorded as “significantly reduced”. Further, in the test on ICAM-1 on human LECs [2], the “effect … on human LECs” value is reported as “significant reduction”. Moreover, the “effect on ATP-mediated expression of ICAM-1 on LECs” value in the test on ICAM-1 on human LECs [1] (simultaneous treatment with 10^−7M or 10^−6M suramin, 10^−7M ATP, p<0.01, n=5) is listed as “significant reduction”.

For the molecule `CCCn1c(=O)c2[nH]c(C3CCCC3)nc2n(CCC)c1=O` [DPCPX, 8-cyclopentyl-1,3-dipropylxanthine], the “effect … on human LECs” value in the test with ICAM-1 on human LECs [2] is given as “no significant effect”.

Regarding VEGF, the “proliferative ability of the LECs” value with human LECs was “Sthenia of proliferative ability”.

In the case of “basic-FGF: basic fibroblast growth factor, lymphangiogenic factor”, in the test with human LECs, the “proliferative ability of the LECs” value was “Sthenia of proliferative ability”.

B1: CCL12: chemokine (protein, UniProt Q62401 23-104, looked up)
C-C motif chemokine 12: GPDAVSTPVTCCYNVVKQKIHVRKLKSYRRITSSQCPREAVIFRTILDKEICADPKEKWVKNSINHLDKTSQTFILEPSCLG
B1: in the test with E-selectin on human LECs (setting [5]), the “expression of E-selectin on human LECs” value is on record as “Little or no expression”. Moreover, the “expression of VCAM-1 on human LECs” value with VCAM-1 on human LECs is recorded as “Little or no expression”. Besides, the “expression of ICAM-1 on human LECs” value in the test on ICAM-1 on human LECs [1] is reported as “slight staining”.

B2: CCL1: chemokine (protein, UniProt P22362 24-96, looked up)
C-C motif chemokine 1: KSMQVPFSRCCFSFAEQEIPLRAILCYRNTSSICSNEGLIFKLKRGKEACALDTVGWVQRHRKMLRHCPSKRK
As for B2, in the test on E-selectin on human LECs (setting [5]), the “expression of E-selectin on human LECs” value is reported as “Little or no expression”. Besides, the “expression of VCAM-1 on human LECs” value with VCAM-1 on human LECs is “Little or no expression”. Moreover, in the test with ICAM-1 on human LECs [1], the “expression of ICAM-1 on human LECs” value is “slight staining”.

B3: VEGF-C: growth factor; lymphangiogenic factor (protein, UniProt P49767 112-227, looked up)
Vascular endothelial growth …: AHYNTEILKSIDNEWRKTQCMPREVCIDVGKEFGVATNTFFKPPCVSVYRCGGCCNSEGLQCMNTSTSYLSKTLFEITVPLSQGPKPVTISFANHTSCRCMSKLDVYRQVHSIIRR
Consider B3, for which the “expression of E-selectin on human LECs” value in the test with E-selectin on human LECs (setting [4]) is given as “No or little expression”. Also, in the test with human LECs, the “proliferative ability of the LECs” value is “Sthenia of proliferative ability”. In addition, the “staining by P-selectin antiserum on human LECs” value in the test on P-selectin on human LECs is recorded as “strongly stained”. Moreover, the “staining with VCAM-1 on human LECs” value in the test with VCAM-1 on human LECs is “Slight staining”. For the same molecule, the “staining with ICAM-1 on human LECs” value in the test with ICAM-1 on human LECs [1] is reported as “Slight staining”.

B4: CCL21: chemokine (protein, UniProt O00585 24-134, looked up)
C-C motif chemokine 21: SDGGAQDCCLKYSQRKIPAKVVRSYRKQEPSLGCSIPAILFLPRKRSQAELCADPKELWVQQLMQHLDKTPSPQKPAQGCRKDRGASKTGKKGKGSKGCKRTERSQTPKGP
Turning to B4, the “expression of E-selectin on human LECs” value in the test on E-selectin on human LECs (setting [5]) is given as “Little or no expression”. Moreover, the “expression of VCAM-1 on human LECs” value with VCAM-1 on human LECs is recorded as “Little or no expression”. Besides, the “expression of ICAM-1 on human LECs” value in the test with ICAM-1 on human LECs [1] is on record as “slight staining”.
